Measurements as given in the supplement of paper PMC10567573.

B1: MMP1 (parent)
chain: YTPDLPRADVDHAIEKAFQLWSNV
B2: HDAC6 (parent)
chain: YVHHQALLDVKNIAHQNKFGEDMP

Variants of: B1
Test: protein stability index of a GFP-peptide fusion (GPS, HEK-293T) (PSI 1-6); higher = more stable
Settings: c terminus: a fixed tail appended
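Also: lentivirally expressed fusions sorted by FACS into six bins by GFP to DsRed ratio, PSI derived from sequencing read proportions per bin multiplied by bin number.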

Protein stability index of substitutions, site by site:
L5: N 1.92 | I 2.1 | K 1.91 | H 2.2 | E 2.16 | R 2.49 | F 2.64 | Y 1.44 | S 2.05 | M 2.12 | V 2.89 | C 1.84 | D 2.34 | A 2.11 | P 1.81 | T 2.02 | Q 2.07 | G 1.32 | W 2.17
Y1: C 2.33 | T 2.92 | F 2.48 | R 2.97 | K 3.32 | H 3.43 | N 3.18 | M 3.16 | G 2.97 | V 3.19 | I 2.64 | D 3.57 | S 3.52 | Q 3.08 | A 4.18 | P 3.47 | W 2.32 | L 2.87 | E 3.53
D9: I 1.78 | V 2.62 | N 1.59 | M 2.31 | A 1.38 | G 2.49 | H 2.51 | S 2.55 | Q 2.5 | E 1.75 | R 1.16 | C 1.75 | F 1.57 | W 1.51 | K 2.44 | L 1.3 | P 1.54 | T 1.82 | Y 2.35
P6: V 2.12 | I 2.09 | C 2.05 | E 1.83 | L 1.32 | D 2.01 | S 2.55 | Y 1.47 | T 1.78 | W 2.06 | K 2.12 | F 1.82 | Q 2.03 | N 1.8 | M 2.2 | H 1.55 | G 2.17 | R 1.78 | A 1.56
H12: I 2 | T 1.82 | V 1.95 | Y 2 | E 2.04 | S 1.58 | D 2.09 | F 1.7 | G 2.03 | Q 1.69 | P 2.11 | M 1.63 | R 1.64 | C 1.62 | K 1.79 | W 2.21 | L 2.19 | N 1.92 | A 2.46
P3: M 1.88 | V 2.13 | G 1.62 | N 2.5 | W 2.87 | C 1.54 | A 1.79 | S 2.36 | H 1.79 | K 2.01 | R 2.49 | T 1.84 | D 3.37 | E 2.66 | I 1.92 | L 1.62 | F 2.3 | Y 1.8 | Q 2.96
V10: F 1.79 | L 1.27 | R 2.55 | E 1.81 | D 2.16 | P 1.49 | K 2.44 | S 1.88 | C 2.1 | Y 2.71 | I 1.76 | G 1.96 | Q 1.81 | T 1.91 | A 2.06 | W 3.04 | M 2.56 | H 1.58 | N 1.48
D4: V 3.17 | F 2.54 | K 2.38 | W 1.94 | Y 3.17 | G 2.16 | L 3.1 | C 1.69 | E 1.4 | A 1.75 | R 2.52 | I 2.75 | P 1.99 | Q 2.62 | T 3.69 | M 2.23 | S 2.35 | N 2.56 | H 2.28
R7: G 1.91 | P 1.81 | I 1.5 | F 2.09 | Q 1.92 | L 1.42 | Y 1.08 | C 2.01 | K 2.12 | V 2.12 | S 1.75 | W 1.79 | M 2.25 | H 1.89 | T 1.88 | D 1.79 | N 1.64 | A 2.3 | E 1.94
D11: N 1.63 | V 1.59 | A 2.08 | Q 1.83 | R 2.69 | Y 1.7 | M 2.12 | C 2.17 | K 2.21 | E 1.4 | P 3.09 | S 1.96 | T 2.62 | I 1.94 | G 3.41 | F 2.12 | L 1.96 | H 2.07 | W 1.73
A8: V 1.64 | K 2.58 | E 2.67 | M 1.74 | S 1.68 | Y 1.93 | R 1.67 | C 2.07 | T 1.79 | W 1.87 | L 2.03 | G 2.83 | H 1.75 | N 1.41 | F 2.94 | I 1.88 | Q 1.57 | P 1.51 | D 1.53
T2: E 3.6 | L 1.83 | M 2.35 | Y 2.45 | F 2.17 | G 2.4 | K 2.56 | D 3.08 | H 2.11 | A 2.4 | S 1.95 | W 2.16 | C 1.93 | N 2.18 | R 2.31 | P 2.17 | Q 1.74 | V 1.95 | I 2.52

Variants of: B2
Test: as above
Settings: c terminus: a fixed tail appended

Protein stability index, by site and new letter:
M23: R 1.97 | H 1.93 | C 1.95 | E 2.06 | P 2.18 | L 1.97 | K 2.26 | N 1.88 | S 2.13 | Y 2.14 | A 1.94 | G 2.03 | I 2.39 | V 1.74 | W 1.49 | F 2.23 | T 2.63 | D 2.17 | Q 1.68
E21: D 1.97 | Y 2.15 | W 2.02 | C 2.23 | S 2.22 | T 2.01 | G 2.14 | R 1.47 | Q 2.11 | H 1.46 | K 1.57 | M 1.71 | P 1.4 | L 1.72 | F 2.54 | V 1.61 | I 1.57 | A 2.01 | N 2
F19: R 1.88 | N 2.05 | T 2.19 | Q 2.35 | M 2.34 | L 2.09 | S 2.39 | W 1.73 | Y 1.96 | V 1.83 | P 2.83
G20: D 2.28 | P 1.96 | N 1.96 | Q 2.03 | F 3.09 | V 2.13 | E 2.26 | K 2.14 | S 1.82 | W 2.41 | L 2.19 | R 1.56 | H 2.19 | T 1.91 | A 1.99 | C 1.83 | Y 2.58 | M 2.35 | I 1.88
D22: S 2.48 | N 2.31 | G 1.64 | C 2.63 | L 2.17 | K 2.09 | R 1.73 | W 2.14 | T 1.86 | V 1.5 | Y 1.74 | H 2.4 | E 1.69 | A 1.67 | M 1.68 | I 2.21 | P 2.21 | F 1.57 | Q 1.76
P24: Y 1.51 | E 1.77 | I 2.06 | C 1.98 | W 2.05 | V 1.57 | G 2.36 | K 2.25 | R 1.56 | S 2.25 | Q 1.91 | L 2.23 | M 1.96 | T 2.17 | F 1.49 | D 1.96 | N 2.19 | H 1.58 | A 1.46
